Source: patent publication US20260297190 (published 2026)

How the values were obtained:
[1] = molecular target: human CD47-Fc (human); assay: SPR
[2] = molecular target: CD47 on Raji cells (human, UniProt Q08722); assay: FACS, Raji cells, 4C
CD47 on Raji cells, sequence (Q08722 19-323): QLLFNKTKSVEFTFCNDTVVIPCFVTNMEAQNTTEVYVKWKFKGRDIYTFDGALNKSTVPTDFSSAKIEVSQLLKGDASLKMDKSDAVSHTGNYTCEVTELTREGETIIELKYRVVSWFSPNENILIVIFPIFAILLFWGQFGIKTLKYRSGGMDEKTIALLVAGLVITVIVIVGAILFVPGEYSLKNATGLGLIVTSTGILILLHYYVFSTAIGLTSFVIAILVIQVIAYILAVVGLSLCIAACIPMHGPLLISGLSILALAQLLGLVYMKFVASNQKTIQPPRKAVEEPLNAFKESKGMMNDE

human CD47-Fc (human), sequence (chain, as listed by the source): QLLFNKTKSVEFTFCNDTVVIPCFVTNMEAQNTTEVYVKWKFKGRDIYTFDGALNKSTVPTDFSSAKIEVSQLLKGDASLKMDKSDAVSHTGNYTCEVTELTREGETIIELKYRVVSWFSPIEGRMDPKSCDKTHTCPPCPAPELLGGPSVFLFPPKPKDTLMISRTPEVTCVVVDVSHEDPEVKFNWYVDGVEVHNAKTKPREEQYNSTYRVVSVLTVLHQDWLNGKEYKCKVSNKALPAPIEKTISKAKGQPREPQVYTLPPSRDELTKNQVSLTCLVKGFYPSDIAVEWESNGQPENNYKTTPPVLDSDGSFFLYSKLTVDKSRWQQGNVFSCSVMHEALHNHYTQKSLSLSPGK

Binder	Kd [1]	EC50 [2]
DARPin protein #3 (designed binder) DLGRKLLQAAARGQDDEVRELLKAGADVNAKDLHGRTPLHLAAAIGHLEIVEVLLKAGADVNAKDFLGWTPLHIAAFRGHLEIVEVLLKAGADVNAQDEAGETPADLAAQEGHEDIAEVLQKAA	0.562 nM	58.4 nM
DARPin protein #2 (designed binder) DLGIKLLHAAFQGQDDEVRILLAAGADVNAKDKVGRTPLHRAAQWGHLEIVEVLLKAGADVNAKDHVGWTPLHLAAWRGHLEIVEVLLKAGADVNAQDASGFTPADLAARQGHEDIAEVLQKAA	0.813 nM	20.9 nM
DARPin protein #5 (designed binder) DLGRKLLQAAARGQDDEVRELLKAGADVNAKDLLGRTPLHLAASIGHLEIVEVLLKAGADVNAKDERGFTPLHIAALQGHLEIVEVLLKAGADVNAQDLEGRTPADLAAEEGHEDIAEVLQKAA	0.552 nM	45.5 nM
DARPin protein #7 (designed binder) DLGEKLLKAAARGQDDEVRELLKAGADVNAKDLLGRTPLHLAASIGHLEIVEVLLKAGADVNAKDERGYTPLHIAAIVGHLEIVEVLLKAGADVNAQDARGATPADLAAREGHEDIAEVLQKAA	0.352 nM	28.5 nM
DARPin protein #1 (designed binder) ALGKKLLQAAARGQDDEVRELLKAGADVNAKDLIGRTPLHLAASIGHLEIVEVLLKAGADVNAKDSRGWTPLHIAAVSGHLEIVEVLLKAGADVNAQDRAGATPADLAAAEGNEDIAEVLQKAA	0.328 nM	40.4 nM

The next binders have a lower Kd [1] than those just listed; values first:

Kd [1]	EC50 [2]	Binder
0.244 nM	74.7 nM	DARPin protein #4 (designed binder) DLGKKLLQAAARGQDDEVRELLKAGADVNAKDLKGRTPLHLAAATGHPEIVEVLLKAGADVNAKDQFGYTPLHIAAAWGHLEIVEVLLKAGADVNAQDQKGETPADLAAKEGHEDIAEVLQKAA
0.24 nM	48 nM	DARPin protein #6 (designed binder) DLGRKLLQAAARGQDDEVRELLKAGADVNAKDLHGRTPLHLAAAIGHLEIVEVLLKAGADVNAKDVFGYTPLHIAAFRGHLEIVEVLLKAGADVNAQDERGETPADLAAEAGHEDIAEVLQKAA
0.102 nM	17.2 nM	DARPin protein #8 (designed binder) DLGKKLLQAAARGQDDEVRELLKAGADVNAKDLLGRTPLHLAASIGHLEIVEVLLKAGADVNAKDSRGFTPLHLAAIIGHLEIVEVLLKAGADVNAQDLKGLTPADLAAAEGHEDIAEVLQKAA
